The record followed here is article doi:10.1101/2023.09.29.560221 (bioRxiv, 2023).

For one data set, the target named is T1, human Topoisomerase I (human, UniProt P11387 1-765).
T1 sequence: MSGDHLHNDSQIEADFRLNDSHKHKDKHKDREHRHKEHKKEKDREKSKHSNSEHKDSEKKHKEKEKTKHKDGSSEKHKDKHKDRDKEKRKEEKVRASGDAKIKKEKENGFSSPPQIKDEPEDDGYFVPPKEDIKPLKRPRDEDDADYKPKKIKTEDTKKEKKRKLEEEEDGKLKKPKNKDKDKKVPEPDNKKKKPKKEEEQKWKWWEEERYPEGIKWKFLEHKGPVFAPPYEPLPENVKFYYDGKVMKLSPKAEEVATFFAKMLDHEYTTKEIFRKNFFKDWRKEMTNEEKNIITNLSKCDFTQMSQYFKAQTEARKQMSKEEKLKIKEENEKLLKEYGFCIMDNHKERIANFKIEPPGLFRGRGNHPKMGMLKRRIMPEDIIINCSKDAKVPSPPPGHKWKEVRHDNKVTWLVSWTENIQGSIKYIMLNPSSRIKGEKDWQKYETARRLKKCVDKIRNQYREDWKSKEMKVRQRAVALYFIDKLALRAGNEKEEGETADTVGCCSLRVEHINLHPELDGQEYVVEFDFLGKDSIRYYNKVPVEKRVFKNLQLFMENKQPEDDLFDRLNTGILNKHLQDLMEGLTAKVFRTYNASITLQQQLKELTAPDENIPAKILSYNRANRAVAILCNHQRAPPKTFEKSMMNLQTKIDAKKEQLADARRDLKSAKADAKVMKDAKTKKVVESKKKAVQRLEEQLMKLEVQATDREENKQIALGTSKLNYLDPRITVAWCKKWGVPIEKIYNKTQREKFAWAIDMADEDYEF
As to the kind of experiment: ELISA. (In an ELISA, binding on a coated surface is turned into a signal by an enzyme label.)

The data set “native gel or EMSA” concerns the molecule itself. As to the kind of experiment: native gel or EMSA. A general note: A gel shift assay detects complexes by their altered migration in electrophoresis.

B1: SV40 Large T-antigen (LT), wild type, purified from insect cells (natural protein)
chain: MDKVLNREESLQLMDLLGLERSAWGNIPLMRKAYLKKCKEFHPDKGGDEEKMKKMNTLYKKMEDGVKYAHQPDFGGFWDATEIPTYGTDEWEQWWNAFNEENLFCSEEMPSSDDEATADSQHSTPPKKKRKVEDPKDFPSELLSFLSHAVFSNRTLACFAIYTTKEKAALLYKKIMEKYSVTFISRHNSYNHNILFFLTPHRHRVSAINNYAQKLCTFSFLICKGVNKEYLMYSALTRDPFSVIEESLPGGLKEHDFNPEEAEETKQVSWKLVTEYAMETKCDDVLLLLGMYLEFQYSFEMCLKCIKKEQPSHYKYHEKHYANAAIFADSKNQKTICQQAVDTVLAKKRVDSLQLTREQMLTNRFNDLLDRMDIMFGSTGSADIEEWMAGVAWLHCLLPKMDSVVYDFLKCMVYNIPKKRYWLFKGPIDSGKTTLAAALLELCGGKALNVNLPLDRLNFELGVAIDQFLVVFEDVKGTGGESRDLPSGQGINNLDNLRDYLDGSVKVNLEKKHLNKRTQIFPPGIVTMNEYSVPKTLQARFVKQIDFRPKDYLKHCLERSEFLLEKRIIQSGIALLLMLIWYRPVAEFAQSIQSRIVEWKERLDKEFSLSVYQKMKFNVAMGIGVLDWLRNSDDDDEDSQENADKNEDGGEKNMEDSGHETGIDSQSQGSFQAPQSSQSVHDHNQPYHICRGFTCFKKPPTPPPEPET
B1: the binding result with human Topoisomerase I is recorded as “binds”.

B2: SV40 Large T-antigen T518D (phosphomimetic mutant), purified from insect cells (natural protein)
chain: MDKVLNREESLQLMDLLGLERSAWGNIPLMRKAYLKKCKEFHPDKGGDEEKMKKMNTLYKKMEDGVKYAHQPDFGGFWDATEIPTYGTDEWEQWWNAFNEENLFCSEEMPSSDDEATADSQHSTPPKKKRKVEDPKDFPSELLSFLSHAVFSNRTLACFAIYTTKEKAALLYKKIMEKYSVTFISRHNSYNHNILFFLTPHRHRVSAINNYAQKLCTFSFLICKGVNKEYLMYSALTRDPFSVIEESLPGGLKEHDFNPEEAEETKQVSWKLVTEYAMETKCDDVLLLLGMYLEFQYSFEMCLKCIKKEQPSHYKYHEKHYANAAIFADSKNQKTICQQAVDTVLAKKRVDSLQLTREQMLTNRFNDLLDRMDIMFGSTGSADIEEWMAGVAWLHCLLPKMDSVVYDFLKCMVYNIPKKRYWLFKGPIDSGKTTLAAALLELCGGKALNVNLPLDRLNFELGVAIDQFLVVFEDVKGTGGESRDLPSGQGINNLDNLRDYLDGSVKVNLEKKHLNKRDQIFPPGIVTMNEYSVPKTLQARFVKQIDFRPKDYLKHCLERSEFLLEKRIIQSGIALLLMLIWYRPVAEFAQSIQSRIVEWKERLDKEFSLSVYQKMKFNVAMGIGVLDWLRNSDDDDEDSQENADKNEDGGEKNMEDSGHETGIDSQSQGSFQAPQSSQSVHDHNQPYHICRGFTCFKKPPTPPPEPET
As usually defined, the stoichiometry N is a count of units in the complex or per binding partner. Turning to B2, the binding result with human Topoisomerase I is given as “binds”. For the same molecule, the “stoichiometry N” value in “native gel or EMSA” worked out at 6.
